Results reported in patent publication US20150023959A1 (BIOVERATIV THERAPEUTICS, published 2015).

Target: T1, FVIII-155/VWF-031 heterodimer
T1 construct: The two chains are held together by disulfide bonds between the Fc regions; also called FVIII155/VWF31 heterodimer; FVIII155:VWF31
Test: Octet BLI, heterodimer immobilized on protein G sensor, FVIII in solution
Description: For the assay, full length VWF was captured by using APS sensor. The binding of FVIIIFc and FVIII to the full-length VWF is shown at the lower left panel. The lack of binding of FVIIIY1680 (a mutant having no affinity for VWF) and FVIII:VWF heterodimer (FVIII155/VWF031) is shown at the lower right panel. […] The binding of the constructs to FVIII was measured.
The same experiment was performed in reverse orientation to determine if the D′D3 portion in the FVIII-VWF heterodimer can interact with other FVIII molecules not covalently attached to D′D3. […] Protein G alone with FVIII was used as control. These binding experiments confirmed that D′D3 in heterodimer can interact with only one FVIII molecule which is covalently attached to it and prevent FVIII from interacting with full length wild type VWF molecules.

T1 sequence (chain, as listed by the source): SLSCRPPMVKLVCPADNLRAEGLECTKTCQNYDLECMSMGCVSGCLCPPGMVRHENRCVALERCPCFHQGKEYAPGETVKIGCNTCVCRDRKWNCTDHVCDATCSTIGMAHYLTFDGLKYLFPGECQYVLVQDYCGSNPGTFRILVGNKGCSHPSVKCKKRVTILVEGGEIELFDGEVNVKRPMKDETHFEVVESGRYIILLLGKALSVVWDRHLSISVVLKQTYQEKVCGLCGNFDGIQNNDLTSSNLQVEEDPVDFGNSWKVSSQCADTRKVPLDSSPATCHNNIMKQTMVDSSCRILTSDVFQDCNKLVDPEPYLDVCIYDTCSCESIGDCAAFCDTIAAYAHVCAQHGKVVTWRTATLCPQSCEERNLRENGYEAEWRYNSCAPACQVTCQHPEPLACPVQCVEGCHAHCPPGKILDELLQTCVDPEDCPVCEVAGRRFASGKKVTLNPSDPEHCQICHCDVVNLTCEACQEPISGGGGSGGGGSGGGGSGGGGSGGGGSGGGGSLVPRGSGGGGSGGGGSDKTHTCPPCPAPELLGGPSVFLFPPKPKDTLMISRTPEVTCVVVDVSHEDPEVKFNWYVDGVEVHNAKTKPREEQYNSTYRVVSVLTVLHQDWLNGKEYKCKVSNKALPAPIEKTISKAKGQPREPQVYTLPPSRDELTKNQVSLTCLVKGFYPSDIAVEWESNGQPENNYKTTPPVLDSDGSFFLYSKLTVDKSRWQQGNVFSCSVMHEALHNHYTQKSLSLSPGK

B1: rFVIII (other)
chain: ATRRYYLGAVELSWDYMQSDLGELPVDARFPPRVPKSFPFNTSVVYKKTLFVEFTDHLFNIAKPRPPWMGLLGPTIQAEVYDTVVITLKNMASHPVSLHAVGVSYWKASEGAEYDDQTSQREKEDDKVFPGGSHTYVWQVLKENGPMASDPLCLTYSYLSHVDLVKDLNSGLIGALLVCREGSLAKEKTQTLHKFILLFAVFDEGKSWHSETKNSLMQDRDAASARAWPKMHTVNGYVNRSLPGLIGCHRKSVYWHVIGMGTTPEVHSIFLEGHTFLVRNHRQASLEISPITFLTAQTLLMDLGQFLLFCHISSHQHDGMEAYVKVDSCPEEPQLRMKNNEEAEDYDDDLTDSEMDVVRFDDDNSPSFIQIRSVAKKHPKTWVHYIAAEEEDWDYAPLVLAPDDRSYKSQYLNNGPQRIGRKYKKVRFMAYTDETFKTREAIQHESGILGPLLYGEVGDTLLIIFKNQASRPYNIYPHGITDVRPLYSRRLPKGVKHLKDFPILPGEIFKYKWTVTVEDGPTKSDPRCLTRYYSSFVNMERDLASGLIGPLLICYKESVDQRGNQIMSDKRNVILFSVFDENRSWYLTENIQRFLPNPAGVQLEDPEFQASNIMHSINGYVFDSLQLSVCLHEVAYWYILSIGAQTDFLSVFFSGYTFKHKMVYEDTLTLFPFSGETVFMSMENPGLWILGCHNSDFRNRGMTALLKVSSCDKNTGDYYEDSYEDISAYLLSKNNAIEPRSFSQNPPVLKRHQREITRTTLQSDQEEIDYDDTISVEMKKEDFDIYDEDENQSPRSFQKKTRHYFIAAVERLWDYGMSSSPHVLRNRAQSGSVPQFKKVVFQEFTDGSFTQPLYRGELNEHLGLLGPYIRAEVEDNIMVTFRNQASRPYSFYSSLISYEEDQRQGAEPRKNFVKPNETKTYFWKVQHHMAPTKDEFDCKAWAYFSDVDLEKDVHSGLIGPLLVCHTNTLNPAHGRQVTVQEFALFFTIFDETKSWYFTENMERNCRAPCNIQMEDPTFKENYRFHAINGYIMDTLPGLVMAQDQRIRWYLLSMGSNENIHSIHFSGHVFTVRKKEEYKMALYNLYPGVFETVEMLPSKAGIWRVECLIGEHLHAGMSTLFLVYSNKCQTPLGMASGHIRDFQITASGQYGQWAPKLARLHYSGSINAWSTKEPFSWIKVDLLAPMIIHGIKTQGARQKFSSLYISQFIIMYSLDGKKWQTYRGNSTGTLMVFFGNVDSSGIKHNIFNPPIIARYIRLHPTHYSIRSTLRMELMGCDLNSCSMPLGMESKAISDAQITASSYFTNMFATWSPSKARLHLQGRSNAWRPQVNNPKEWLQVDFQKTMKVTGVTTQGVKSLLTSMYVKEFLISSSQDGHQWTLFFQNGKVKVFQGNQDSFTPVVNSLDPPLLTRYLRIHPQSWVHQIALRMEVLGCEAQDLY
notes: also called wild type FVIII
binding result: no binding
